# In IntAct's records for PubMed 16777958:
# Biological target: ack1_mouse Tnk2 (UniProt O54967)
# Sequence (O54967 whole entry): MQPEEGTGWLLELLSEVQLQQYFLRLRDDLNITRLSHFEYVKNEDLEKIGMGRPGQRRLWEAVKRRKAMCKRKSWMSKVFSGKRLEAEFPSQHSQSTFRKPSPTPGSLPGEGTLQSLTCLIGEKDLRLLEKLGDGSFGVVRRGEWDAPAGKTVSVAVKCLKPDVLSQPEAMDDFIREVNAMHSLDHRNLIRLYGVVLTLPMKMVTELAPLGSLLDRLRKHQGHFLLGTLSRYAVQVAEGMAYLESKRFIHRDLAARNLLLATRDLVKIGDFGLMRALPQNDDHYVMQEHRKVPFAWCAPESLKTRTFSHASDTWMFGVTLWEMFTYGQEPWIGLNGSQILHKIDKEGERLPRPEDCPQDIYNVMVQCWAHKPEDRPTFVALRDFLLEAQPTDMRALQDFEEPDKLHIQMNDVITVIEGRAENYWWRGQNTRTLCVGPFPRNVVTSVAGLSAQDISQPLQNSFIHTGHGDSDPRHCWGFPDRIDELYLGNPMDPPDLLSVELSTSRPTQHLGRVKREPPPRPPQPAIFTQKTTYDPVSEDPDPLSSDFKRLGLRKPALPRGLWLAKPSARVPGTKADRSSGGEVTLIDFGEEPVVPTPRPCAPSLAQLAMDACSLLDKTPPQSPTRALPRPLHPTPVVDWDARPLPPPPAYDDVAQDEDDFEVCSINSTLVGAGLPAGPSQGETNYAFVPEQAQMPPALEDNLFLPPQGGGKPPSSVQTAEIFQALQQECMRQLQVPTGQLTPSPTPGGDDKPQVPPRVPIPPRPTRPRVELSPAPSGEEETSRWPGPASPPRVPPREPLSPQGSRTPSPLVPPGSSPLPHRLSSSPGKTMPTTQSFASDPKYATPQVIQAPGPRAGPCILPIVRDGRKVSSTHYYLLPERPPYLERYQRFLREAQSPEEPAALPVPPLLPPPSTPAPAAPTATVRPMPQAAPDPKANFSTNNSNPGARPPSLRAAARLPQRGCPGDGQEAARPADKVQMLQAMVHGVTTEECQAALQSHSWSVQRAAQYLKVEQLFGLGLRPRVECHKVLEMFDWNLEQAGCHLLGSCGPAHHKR
substance,measurement,value
SH2/SH3 adapter protein NCK1 (Homo sapiens) (from UniProt P16333-1) R308A,effect of a mutation on the interaction,disrupting interaction strength
